# Data reported in article PMC5218414 (PLoS ONE, 2017).
# Values joined by “and” are separate entries in the source; they are usually repeats but may differ in a detail not shown here. Equal values may be shown once.
# B1: necitumumab (IMC-11F8) Fab fragment (Fab, V domains shown)
# VH: QVQLQESGPGLVKPSQTLSLTCTVSGGSISSGDYYWSWIRQPPGKGLEWIGYIYYSGSTDYNPSLKSRVTMSVDTSKNQFSLKVNSVTAADTAVYYCARVSIFGVGTFDYWGQGTLVTVSS
# VL: EIVMTQSPATLSLSPGERATLSCRASQSVSSYLAWYQQKPGQAPRLLIYDASNRATGIPARFSGSGSGTDFTLTISSLEPEDFAVYYCHQYGSTPLTFGGGTKAEIK
# notes: Fab heavy chain of necitumumab; light chain of necitumumab; source: Expi293 transient expression, co-transfection of heavy and light chain vectors, purified (IMAC, Ni Sepharose Excel)
# B2: matuzumab Fab fragment (Fab, V domains shown)
# VH: QVQLVQSGAEVKKPGASVKVSCKASGYTFTSHWMHWVRQAPGQGLEWIGEFNPSNGRTNYNEKFKSKATMTVDTSTNTAYMELSSLRSEDTAVYYCASRDYDYAGRYFDYWGQGTLVTVSS
# VL: DIQMTQSPSSLSASVGDRVTITCSASSSVTYMYWYQQKPGKAPKLLIYDTSNLASGVPSRFSGSGSGTDYTFTISSLQPEDIATYYCQQWSSHIFTFGQGTKVEIK
# notes: Fab heavy chain of matuzumab; light chain of matuzumab; source: Expi293 transient expression, co-transfection of heavy and light chain vectors, purified (IMAC, Ni Sepharose Excel)
# B3: duligotuzumab (DL11) Fab fragment (Fab, V domains shown)
# VH: EVQLVESGGGLVQPGGSLRLSCAASGFTLSGDWIHWVRQAPGKGLEWLGEISAAGGYTDYADSVKGRFTISADTSKNTAYLQMNSLRAEDTAVYYCARESRVSFEAAMDYWGQGTLVTVSS
# VL: DIQMTQSPSSLSASVGDRVTITCRASQDLATDVAWYQQKPGKAPKLLIYSASFLYSGVPSRFSGSGSGTDFTLTISSLQPEDFATYYCQQSEPEPYTFGQGTKVEIK
# notes: Fab heavy chain of duligotuzumab; light chain of duligotuzumab; source: Expi293 transient expression, co-transfection of heavy and light chain vectors, purified (IMAC, Ni Sepharose Excel)
# Target: T1, human epidermal growth factor receptor (EGFR) (Homo sapiens, UniProt P00533)
# T1 construct: human epidermal growth factor receptor, used as a 'monovalent antigen' in solution
# Experiment: SPR; ProteOn XPR36 one-shot kinetics; antibodies amine-coupled onto GLC chips, EGFR injected as monovalent analyte for 3 min (5fold and 3fold series, top 56 nM; over matuzumab 3fold series, top 278 nM); 25°C, PBS + 0.01% Tween-20; global Langmuir model with mass transport; apparent
# Conditions: both partners purified
Kd,koff,kon,Binder
1.5 nM and 1.6 nM,0.0036 s⁻¹ and 0.0059 s⁻¹,3.9e+06 M⁻¹ s⁻¹ and 2.2e+06 M⁻¹ s⁻¹,B1
93.1 nM and 92.6 nM,0.034 s⁻¹ and 0.031 s⁻¹,360000 M⁻¹ s⁻¹ and 340000 M⁻¹ s⁻¹,B2
1.9 nM and 1.7 nM,0.0035 s⁻¹ and 0.003 s⁻¹,1.9e+06 M⁻¹ s⁻¹ and 1.8e+06 M⁻¹ s⁻¹,B3
